The text below walks through data of patent US6858210B1, “Therapeutic and diagnostic domain 1 β2GPI polypeptides and methods of using same” (La Jolla Pharmaceutical Co., priority 1998, dated 2005).

Changes are numbered by the printed parent chain. Numbers in names are those of the source. Read-outs that look alike come from different tables or passages of the source. Some results are limits rather than exact numbers.

In assay [1] the test system is affinity purified β2GPI-dependent antiphospholipid antibody. Nature of the assay: Direct binding ELISA, nickel chelate-coated wells charged with recombinant β2GPI proteins (no cardiolipin). On the set-up: species or system human. Particulars: O.D. at 550 nm. The protocol:
Nickel Chelate-coated microwell plates (NCP 010 00 Xenopore Corp. 374 Midland Ave. Saddle Brook, N.J. USA) were coated with 50 μl of serial dilutions of the various recombinant β2GPI, in PBS, at room temperature for 2 hours. The plates were washed three times with PBS and blocked with 75 μl of a 1% gelatin (Sigma #G-2500) in PBS for one hour room temperature. […] The plates were washed three times with PBS, 50 μl of alkaline phosphatase conjugated anti-immunoglobulin (anti-human IgG, gamma chain specific, Zymed #62-8422) or anti-rabbit IgG (Zymed #62-6122) diluted appropriately in 1% gelatin was added and incubated at 37° C. for one hour. The plates were washed three times with PBS, 50 μl of alkaline phosphatase PPMP chromogenic substrate solution was added and incubated for 30 minutes at room temperature. The optical density, at 550 nm, was determined by reading the plates in a microplate autoreader (Bio-Teck Instruments, model EL311).
Seven to nine different recombinant β2GPI mutant proteins were examined to determine if they could support the direct binding of affinity purified β2GPI-dependent antiphospholipid antibody preparations in the absence of anionic phospholipid. All recombinant mutant β2GPI were assayed with affinity purified β2GPI-dependent antiphospholipid antibody preparations from 11 different patients. Each mutant recombinant β2GPI protein was tested, in a dose dependent fashion and GST-6his was included as a negative control. The recombinant mutant β2GPI proteins were bound to nickel coated microtiter plates via their 6-his tail. All recombinant mutant β2GPI proteins tested bound rabbit anti-β2GPI showing that they were assessable by antibody (FIG. 5).

The test system is the same in assay [2]. Nature of the assay: Competitive inhibition ELISA: recombinant β2GPI proteins compete for antibody binding to coated full length recombinant β2GPI. Particulars: for IC50: read-out: 50% (concentration to give 50% inhibition). More on the design: species or system human. The protocol:
Microtiter plates (MaxiSorp™, Nalge Nunc International, Denmark) were coated with 50 μl of full length recombinant β2GPI at 10 μg/ml in 0.1 M bicarbonate, pH 9.5, incubated overnight at 4° C., washed three times with 0.15 M PBS, pH 7.2, and blocked for one hour at room temperature with 75 μl of 2% Non-fat Dried Milk (Carnation, 2% NFDM). Test inhibitors were diluted in 2% NFDM and 25 μl of each dilution was added to coated wells. Affinity purified β2GPI-dependent antiphospholipid antibody was diluted in 2% NFDM and 25 μl, of a constant concentration, was added to the wells, including a group of wells that had no inhibitor, which acted as the positive controls. The contents of the wells were mixed and the plates were incubated at 37° C. for one hour. The plates were washed three times with PBS, 50 μl of alkaline phosphatase conjugated anti-human IgG, gamma chain specific, (Zymed #62-8422) diluted appropriately in 2% NFDM was added and incubated at 37° C. for one hour. The plates were washed three times with PBS, 50 μl of alkaline phosphatase PPMP chromogenic substrate solution was added and incubated for 30 minutes, at room temperature. The Optical Density, at 550 nm, was determined by reading the plates in a microplate autoreader (Bio-Teck Instruments, model EL3 11). The percent inhibition was determined by dividing the OD550 obtained in the presence of inhibitor by the mean OD550 obtained from the wells without inhibitor and then multiplying by 100 (more particularly, [mean A550 obtained from control wells without inhibitor less A550 of background] minus [A550 obtained in presence of inhibitor less A550 of background] divided by [mean A550 obtained from control wells without inhibitor less A550 of background] times 100).
Seven to nine different recombinant β2GPI mutant proteins were used to determine the antigenic specificity of affinity purified β2GPI-dependent antiphospholipid antibody preparations from 13 different patients. Each mutant recombinant β2GPI protein was tested, in a dose dependent fashion, for its ability to inhibit affinity purified β2GPI-dependent antiphospholipid antibody from binding to full length recombinant β2GPI. The following values were also observed for domain 1 only recombinant protein (1 - - - -; see Table 2 for designations): […]
A general note: An ELISA detects its analyte on a solid surface through an enzyme-linked reagent.

A further assay deals with rabbit anti-human β2GPI. Nature of the assay: Micropanning of mutant domain 1 phage, rabbit antibody. The class given is binding. More on the design: key: 0 (<10 colonies) to 4+ (confluent) semiquantitative colony score. Particulars: for Micropan score: Table 7B; for μpan score: Table 7A. The protocol:
Error prone PCR was carried out as follows. Domain 1 of human β2GPI was amplified by PCR under conditions that enhance the error rate of Taq polymerase. The primers were such that amino acids 1-64 were amplified. A Sfc 1 restriction site was incorporated as part of amino acid 1. At the 3′ end a Sal 1 restriction site was incorporated after amino acid 64. The PCR reaction was done as described by Leung et al. (1989) Technique 1:11, using 0.25 mM MnCl2. The PCR product was digested with Sfc 1 and Sal 1 and cloned into fd-tet-DOG2 that had been digested with Apal 1 and Sal 1. This positions domain 1 at the N-terminus of pill immediately after the pill signal sequence. The ligation reaction was electroporated in E. coli K91. Phage were harvested and titered by standard methods. Resulting phage clones were assayed using a micropanning technique.
Immulon type 2 plates were coated with protein G. Protein G was prepared at 5 μg/mL in 0.1 M NaHCO3 and 100 μL per well was added to the wells of microtitration plates and incubated overnight at 4° C. After discarding excess protein G solution from plates, each well was blocked with 200 μL 2YT for 1 hour at RT with agitation on an oscillating platform. Tris-buffered saline, pH 7.4/0.5% Tween 20 (TBS/Tween), was used with an automatic plate washer to wash the wells 4 times with 200 μL. One hundred μL human β2GPI-dependent antiphospholipid 6626, 6501, 6701, rabbit β2GPI-dependent antiphospholipid, or control normal IgG, diluted to 2.5 μg/mL with 2YT, was added to washed wells. The plate was incubated for 1 hour at room temperature on a rotating platform.
Phage to be tested by micropanning were obtained from the agar plates generated by biopanning. Each clone to be tested was transferred using sterile toothpicks to a separate well of a round-bottom 96-well microtitration plate (Corning, Corning, N.Y.) containing 200 μL 2YT/Tet per well and cultured overnight at 30° C. Following overnight incubation, phage cultures were centrifuged using a microtitration plate holder at 1300×g for 10 minutes at room temperature. Supernatants constituted the source of “neat” phage. The neat phage were diluted 1: 100-1:1000 and 100 μL was added to the plate containing protein G-bound β2GPI-dependent antiphospholipid antibody-6501 and normal IgG prepared as described above. The incubation of dilute phage with aPL antibody or control IgG was carried out for 2 hours at room temperature on a flat rotator. After 9 washes with TBS/Tween in an automated plate washer, the IgG-bound phage was eluted with 20 μL of 0.2 N HCl-glycine/0.1% BSA, pH 2.2. The elution incubation continued for 10 minutes at RT, during which time a new Corning microtitration plate was prepared containing 20 μL of freshly starved E. coli per well and kept chilled. One hundred forty μL of 29 mM Tris was added to the plate containing the phage eluates in order to neutralize the pH, following which 20 μL of phage suspension was transferred from each well to the corresponding well in the plate containing starved E. coli. After a 10 minute incubation at 37° C., 200 μL 2YT was added and incubation carried out an additional 30 minutes at 37° C. Using multichannel pipettors, 8 μL from each well was spotted on a large 2YT/Tet agar plate while retaining the original 8×12 well pattern and orientation from the last microtitration plate. After allowing the spots to dry for 30 minutes, the plate was incubated overnight at 30° C. The following day, colonies were semiquantitatively scored from 0 to 4+, with 0 symbolizing <10 colonies; 1+=10-30; 2+=30 colonies to 70% confluent; 3+=70%-90% confluent; 4+=confluent.
For Table 7A, the rabbit anti-human β2GPI was performed on two separate occasions. Mutations are listed with the original amino acid, the position number, and the identity of the amino acid at that position in the mutant. […] Non-mutated domain 1 have a score of 3+, while domain 5 phage gave a score of −. Silent mutations are not shown. […]

Assay [3] deals with human β2GPI-dependent antiphospholipid antibody. Nature of the assay: Micropanning of mutant domain 1 phage, patient antibodies. In kind it is binding. Conditions: for Micropan score: Table 7B.

B1: 12---: recombinant β2GPI deletion mutant with domains 1 and 2 (protein)
chain: GRTCPKPDDLPFSTVVPLKTFYEPGEEITYSCKPGYVSRGGMRKFICPLTGLWPINTLKCTPRVCPFAGILENGAVRYTTFEYPNTISFSCNTGFYLNGADSAKCTEEGKWSPELPVCAPIIGHHHHHH
With B1, the “Maximum O.D.” value is on record as 0.119 in assay [1] (Ab 6203); 0.028 in assay [1] (Ab 6501); 0.073 in assay [1] (Ab 6626); 0.016 in assay [1] (Ab 6632); 0.008 in assay [1] (Ab 7008); 0.063 in assay [1] (Ab 7015). For the same molecule, the “Max (maximum inhibition observed at concentrations tested)” value was 20% in assay [2] (Ab 6203); 30% in assay [2] (Ab 6501); 50% in assay [2] (Ab 6626); 70% in assay [2] (Ab 6632); 45% in assay [2] (Ab 6644); 40% in assay [2] (Ab 7008). The “Max (maximum inhibition observed at concentrations tested)” value in assay [2] (Ab 7015) was 30%; in assay [2] (Ab 7101), 20%; in assay [2] (Ab 7104), 90%. Also, the IC50 in assay [2] (Ab 6203) is over 10 µM; in assay [2] (Ab 6501), over 10 µM; in assay [2] (Ab 6626) it was over 10 µM; in assay [2] (Ab 6632), 3 µM; in assay [2] (Ab 6644) it was over 10 µM; in assay [2] (Ab 7008), over 10 µM. The IC50 in assay [2] (Ab 7015) was over 10 µM; in assay [2] (Ab 7101), over 10 µM; in assay [2] (Ab 7104), 1 µM.

B2: Dom1: phage displaying wild type (WT) domain 1 (protein)
chain: GRTCPKPDDLPFSTVVPLKTFYEPGEEITYSCKPGYVSRGGMRKFICPLTGLWPINTLKCTPRV
Take B2: the Micropan score (in the assay with rabbit anti-human β2GPI (1st column); with rabbit anti-human β2GPI (2nd column); in the assay with rabbit anti-human β2GPI (3rd column); with rabbit anti-human β2GPI (4th column); in the assay with rabbit anti-human β2GPI (5th column); in assay [3] (antibody 6226)) was 4 throughout. In addition, the Micropan score in assay [3] (antibody 6501), in assay [3] (antibody 6632), in assay [3] (antibody 6644), in assay [3] (antibody 6701) and in assay [3] (antibody 7008) was 4 throughout. Besides, in assay [3] (control phage for Table 7A, antibody not stated), the μpan score was 3+ (3+=70%-90% confluent).

B3: 3F8: phage clone, domain 1 mutant T50A (protein)
chain: B2 chain with T50A
Regarding B3, the Micropan score in assay [3] (antibody 6226) is recorded as 2; in assay [3] (antibody 6501), 2; in assay [3] (antibody 6632) it was 2; in assay [3] (antibody 6644) it was 3; in assay [3] (antibody 6701) it was 2; in assay [3] (antibody 7008), 3.

B4: D11: phage clone, domain 1 mutant N56D (protein)
chain: B2 chain with N56D
As to B4, the μpan score in the assay with rabbit anti-human β2GPI (first (or only) value) is reported as 2; in the assay on rabbit anti-human β2GPI (second value (second occasion)), 3.
